First the molecules themselves.
T1: Ovalbumin (UniProt P01012 2-386)
T1 sequence: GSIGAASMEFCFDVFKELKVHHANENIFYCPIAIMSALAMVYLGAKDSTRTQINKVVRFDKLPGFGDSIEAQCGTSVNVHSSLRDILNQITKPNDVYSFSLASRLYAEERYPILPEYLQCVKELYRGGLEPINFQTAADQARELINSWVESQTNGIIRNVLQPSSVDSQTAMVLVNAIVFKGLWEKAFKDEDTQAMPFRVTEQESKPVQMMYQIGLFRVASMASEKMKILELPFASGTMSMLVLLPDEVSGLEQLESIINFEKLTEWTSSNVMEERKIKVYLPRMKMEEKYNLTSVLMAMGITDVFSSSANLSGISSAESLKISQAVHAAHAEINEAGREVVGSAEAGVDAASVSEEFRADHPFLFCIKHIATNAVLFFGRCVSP

B1: g060a02 (Fab, V domains shown)
VH: QVQLQQSGGGLVKPGGSLRLSCAASGFTFSSYSMNWVRQAPGKGLEWVSSISSSSSYIYYADSVKGRFTISRDNAKNSLYLQMNSLRAEDTAVYYCARRPGWAATRAAGAFDIWGQGTMVTVS
VL: EIVLTQSPSSLSASVGDRVTITCRASQGISNYLAWYQQKPGKVPKLLIYAASTLQSGVPSRFSGSGSGTDFTLTISSLQPEDVATYYCQKYNSAPYTFGQGTKLEIK
B2: g060f11 (Fab, V domains shown)
VH: EVQLVQSGGGVVRPGGSLRLSCAGSGFTFDEYAMSWVRQAPGKGLEWVAFINWNGDSTYYADSVKGRFTVSRTNAKNSLYLQMNSLRAEDTAFYYCARDPRTKLGMSYFDYWGQGTLVTVS
VL: EIVMTQSPSSLSASVGDRVTITCRASQTISNHLNWYQQKPGRAPKLLIYVGSSLQSGVPSRFSGSGSGTDFTLTISGLQPEDFATYYCQQSYSPSYTFGQGTKVEIK
B3: g060g12 (Fab, V domains shown)
VH: EVQLVQSGGGVVRPGGSLRLSCAGSGFTFDEYAMSWVRQAPGKGLKWVAFINWNGDSTYYADSVKGRFTVSRSNAKNSLYLQMNSLRAEDTAFYCCARDPRTKLGMSYFDYWGQGTLVTVS
VL: DIQMTQSPSSLSASVGDRVTITCRASQTISNHLNWYQQKPGRAPKLLIYVGSSLRSGVPSRFSGSGSGTDFTLTISGLQPEDFATYYCQQSYSPSYTFGQGTKVEIK
B4: g060f03 (Fab, V domains shown)
VH: QVQLVQSGGGLVKPGGSLRLSCAASGFTFSNAWMSWVRQAPGKGLEWVGHVKSMTDGGTTDYAAPVKGRFTISRDDSENTLYLQMNSLKTDDTAVYYCTTHDYWGQGTLVTVS
VL: EIVMTQSPPFLSASVGDRVTITCRASQGLSTYLAWYQVKPGKAPKLLIYAASTLQSGVPSRFSGSGSGTEFTLTINSLQPEDFATYYCQQLDTYPLTLGGGTKVEIK
B5: g060d03 (Fab, V domains shown)
VH: QMQLVQSGAEVKKPGTSVRVSCKTSGGYVFSWVRQAPGQGPEWMGGIITNFGTTNYAQKFQGRVTITADKSTNTVYMDLSNLTSEDTAVYYCARAPRGTSTIAARFNRYFFDSWGQGTLVTVS
VL: DIQMTQSPGTLSLSPGERATLSCRASQSVNSDNLAWYQQKPGQAPRLLMSGATSRATDVPDRFSGSGSGTDFTLTISRLEPEDFAVYYCHQYGSSDNTFGQGTKLEIK
B6: g060b05 (Fab, V domains shown)
VH: QVQLVQSGAEVKKLGTSVRVSCKTPGGYVFSWVRQAPGQGPEWMGGIITNFGTTNYARKFQGRITVTADKSTNTVYMDLSNLASEDTAVYYCARAPRGTSTIAARFNRYFFDSWGQGTLVTVS
VL: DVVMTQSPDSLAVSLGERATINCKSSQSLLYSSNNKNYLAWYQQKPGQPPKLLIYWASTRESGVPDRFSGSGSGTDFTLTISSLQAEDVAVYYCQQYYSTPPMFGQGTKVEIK
B7: g060b07 (Fab, V domains shown)
VH: EVQLVESGAEVKKPGTSVRVSCKTSGGYVFSWVRQAPGQGPEWMGGIITSFGTTSYAQKFQGRVTITADKATNTVYMDLSDLTSEDTAIYYCAKAPRGTSTIAARFNRYFFDSWGQGTLVTVS
VL: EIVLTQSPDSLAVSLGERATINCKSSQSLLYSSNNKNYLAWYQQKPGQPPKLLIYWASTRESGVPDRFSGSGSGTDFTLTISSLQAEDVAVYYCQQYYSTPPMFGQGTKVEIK
B8: g060f04 (Fab, V domains shown)
VH: KVQLVQSGAEVKKPGTSVRVSCKTPGGYVFSWVRQAPGQGPEWMGGIITNFGTTNYARKFQGRITVTADKSTNTVYMDLSNLASEDTAVYYCARAPRGTSTIAARFNRYFFDSWGQGTLVTVS
VL: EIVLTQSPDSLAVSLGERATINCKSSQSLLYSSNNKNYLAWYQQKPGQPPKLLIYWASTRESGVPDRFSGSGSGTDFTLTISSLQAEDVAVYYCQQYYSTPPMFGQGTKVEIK
B9: g060f08 (Fab, V domains shown)
VH: KVQLVQSGAEVKKPGTSVRVSCKTSGGYVFSWVRQAPGQGPEWMGGIITNFGTTNYAQKFQGRVTITADKSTNTVYMDLSNLTSEDTAVYYCARAPRGTSTIAARFNRYFFDSWGQGTLVTVS
VL: DVVMTQSPGTLSLSPGERATLSCRASQSVNSDNLAWYQQKPGQAPRLLMSGATSRATDIPDRFSGSGSGTDFTLTISRLEPEDFAVYYCHQYGSSDNTFGQGTKLEIK
B10: g060d07 (Fab, V domains shown)
VH: EVQLVQSGAEVKKPGTSVRVSCKTPGGYVFSWVRQAPGQGPEWMGGIITNFGTTNYARKFQGRITVTADKSTNTVYMDLSNLASEDTAVYYCARAPRGTSTIAARFNRYFFDSWGQGTLVTVS
VL: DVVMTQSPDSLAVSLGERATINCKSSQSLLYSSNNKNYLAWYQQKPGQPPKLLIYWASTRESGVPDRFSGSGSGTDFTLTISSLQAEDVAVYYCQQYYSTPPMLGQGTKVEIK
B11: g060a10 (Fab, V domains shown)
VH: QITLKESGPTLVKPTQTLTLTCTLSGFSLYTTGVGVGWIRQPPGKALEWLARIYWDDDERYNPSLKSRLTITKDASKNQVVLKMTNMDPVDTATYYCARTMGVVLPFDYWGQGTLVTVS
VL: EIVLTQSPSTLSASVGDRVTITCRASQSIGSWLAWYQQKPGKAPKLLIYKASTLQSETPSRFRGSGSGTEFTLTISSLQPDDFATYYCQQFNSFSPWTFGQGTKVEFK
B12: g060c03 (Fab, V domains shown)
VH: KVQLVESGGGLVKPGGSLRLSCAASGSSFSNNNMNWVRQTPGKGLEWVASISFGSHYISYADSVKGRFTISRDNARNAVYLQMNSLRVEDTAVYYCTRCRGGTRTYYYMDVWGKGTLVTVS
VL: EIVMTQSPGTLALSPGDRATLSCGASQSVFGDFLAWYQHKPGQAPRLLIYGASTRATGIPDRFSGSGAGTDFTLTISRLEPEDFAVYFCQQYGDSVFTFGQGTKLEIK
B13: g060b12 (Fab, V domains shown)
VH: QVQLVQSGGGLVKPGGSLRLSCAASGFSFSNNNMNWVRQTPGKGLEWVASISFGSHYISYADSVKGRFTISRDNARNAVYLQMNSLRVEDTAVYYCTRCRGGTRTYYYMDVWGKGTLVTVS
VL: EIVLTQSPGTLALSPGDRATLSCGASQSVFGDFLAWYQHKPGQAPRLLIYGASTRATGIPDRFSGSGAGTDFTLTISRLEPEDFAVYFCQQYGDSVFTFGQGTKLGIK
B14: g060f01 (Fab, V domains shown)
VH: QVQLQQSGGGVVQPGRSLRLSCAASGFAFRDYAMHWVRQAPGKGLEWMGVISFNGDQIFYADSMKGRFTISRENSKNTLHLRMNSLRPEDTAVYYCARARLLFCSGGRCDMDSWGQGTLVTVS
VL: EIVMTQSPSFLSASVGDRVTITCRASQDIITYLAWYQQKPGKAPEVLIFGASTLQSGVPSRFSGSGSGTEFTLTISSLQPEDFATYYCQQIIRYPRTFGQGTRVEIK
B15: g060b09 (Fab, V domains shown)
VH: QVQLQESGPTLVKPTQTLTLTCSFSGFSLGTTGVNVGWIRQPPGKALEWLALISWDGGKHYSPSLNSRITLTKDASREQVVVPTMTNMDPADTGRYYCARIVGTHGFDYWGQGTLVTVS
VL: EIVLTQSPSFLSASVGDRVTITCRASQGIGNFLAWYQQKPGKAPKLLISGASTLQSWVPSRFSGRGSGTEFTLTISSLQPEDFATYYCQQLNRYPPYTFGQGTKLEIK
B16: g060f10 (Fab, V domains shown)
VH: QVTLKESGPTLVKPTQTLTLTCTFSGFSLGTTGVNVGWIRQPPGKALEWLALISWGGGKHYSPSLNSRITLTKDASREQVVVLTMANMDPVDTGRYYCARIVGTHGFDYWGQGTLVTVS
VL: EIVMTQSPSFLSASVGDRVTITCRASQGIGNFLAWYQQKPGKAPKLLISGASTLQSWVPSRFSGRGSGTEFTLTISSLQPEDFATYYCQQLNRYPPYTFGQGTKLEIK
B17: g060e05 (Fab, V domains shown)
VH: QVQLVESGAEVKKPGSSVKVSCKSSGGYVFSWVRQAPGQGLEWMGGIISNFRTAEYARKFQGRVTMTADTSTNTIYMELTSLTSEDTAVYFCVSAPRDTSTIAARFNRYFFDTWGQGTLVTVS
VL: EIVLTQSPGTLSLSPGERATLSCRASRSVNSNNLAWYQQKPDQAPRLLMYGASSRATGIPDRFTGSGSGTDFTLTISRLEPEDFAVYYCHQYGASDNTFGQGTKLEIK
B18: g060g09 (Fab, V domains shown)
VH: KVQLVQSGAEVKKPGSSVKVSCKSSGGYVFSWVRQAPGQGLEWMGGIISNFHTAEYAQKFQGRVTMTADTSTNTIYMELTSLTSEDTAVYFCVSAPRDTSTIAARFNRYFFDTWGQGTLVTVS
VL: EIVLTQSPGTLSLSPGERATLSCRASRSVYSNNLAWYQQKPDQAPRLLMYGASSRATGIPDRFTGSGSGTDFTLTISRLEPEDFAVYYCHQYGASDNTFGQGTKLEIK
B19: g060a11 (Fab, V domains shown)
VH: KVQLVESGGGLVKPGGSLRLSCVVSGFPLNRYTMNWVRQAPGKGLEWLSSISSTSSYIYYADSVKGRFTISRDNAKNSLFLQMNSLRADDTALYFCASGNTHDYWGQGTLVTVS
VL: DVVMTQSPSSLSASVGDRVTITCRASQSININLNWFQQKPGKAPNLLIYSASTLQTGVPSRFSGSGSGTEFTLTISSLQPEDFATYYCQQIYSHVRTFGQGTKVEIK
B20: g060c12 (Fab, V domains shown)
VH: KVQLVQSGGGLVKPGGSLRLSCVVSGFPLNRYIMNWVRQTPGKGLEWLSSISSTSSYIYYADSAKGRFTISRDNAKNSLFLQMNSLRAEDTGLYYCASGNTHDYWGQGTLVTVS
VL: EIVLTQSPSSLSASVGDRVTTTCRTSQSIFINLNWFQQKPGKAPKLLIYSASTLQTGVPSRFSGSGSGTEFTLTISSLQPEDFATYYCQQIYSQVRTFGQGTKVEIK

The target of this assay is T1, Ovalbumin. The experiment in a line: ELISA, periplasmic extract on coated Ovalbumin.
As for B1, the binding result is “no binding (tested: 10 µg/ml Ovalbumin coat)”.
The value for B2 was “no binding (tested: 10 µg/ml Ovalbumin coat)”.
The result for B3 reads “no binding (tested: 10 µg/ml Ovalbumin coat)”.
For the molecule B4, the binding result is on record as “no binding (tested: 10 µg/ml Ovalbumin coat)”.
The value for B5 was “no binding (tested: 10 µg/ml Ovalbumin coat)”; that for B6 was “no binding (tested: 10 µg/ml Ovalbumin coat)”; that for B7 was “no binding (tested: 10 µg/ml Ovalbumin coat)”.
The value for B8 was “no binding (tested: 10 µg/ml Ovalbumin coat)”.
Take B9: the binding result is “no binding (tested: 10 µg/ml Ovalbumin coat)”.
The result for B10 reads “no binding (tested: 10 µg/ml Ovalbumin coat)”; that for B11, “no binding (tested: 10 µg/ml Ovalbumin coat)”; that for B12, “no binding (tested: 10 µg/ml Ovalbumin coat)”.
Consider B13, for which the binding result is listed as “no binding (tested: 10 µg/ml Ovalbumin coat)”.
The result for B14 reads “no binding (tested: 10 µg/ml Ovalbumin coat)”; that for B15, “no binding (tested: 10 µg/ml Ovalbumin coat)”.
The result for B16 reads “no binding (tested: 10 µg/ml Ovalbumin coat)”.
The result for B17 reads “no binding (tested: 10 µg/ml Ovalbumin coat)”; that for B18, “no binding (tested: 10 µg/ml Ovalbumin coat)”.
In the case of B19, the binding result is listed as “no binding (tested: 10 µg/ml Ovalbumin coat)”.
The result for B20 reads “no binding (tested: 10 µg/ml Ovalbumin coat)”.

For the origin of these results see patent US20070141048A1 (SYMPHOGEN A S, published 2007).
